Positions count from the first letter of the chain named.
B1: PD1-41C9 (antibody, V domains shown)
VH: QMQLVESGGGVVQPGRSLRLSCAASGFTFSSYAMHWVRQAPGKGLEWVAVISYDGSNKYYADSVKGRFTISRDNSKNTLYLQMNRLRSEDTAVYYCTTTTFDSWGQGTLITVSS
VL: DIVMTQTPLSLPVTPGEAASISCRSSQSLLDSEDGNTYLDWYLQKPGQSPQLLIYTLSHRASGVPDRFSGSGSGTDFTLKISRVAAEDVGLYYCLQRMGFPYTFGQGTKLDIK
notes: scFv-phage in the screening ELISA; whole IgG in the other assays
B2: PD1-49A2 (antibody, V domains shown)
VH: B1 VH with M2V, S75P, R85S, S88A, Q106R, I110V
VL: B1 VL with T7S, A18P, L30F, E33D, A85E, L91I, L110V, D111E
notes: scFv-phage in the screening ELISA; whole IgG in the other assays; also called Parent 49A2
B3: PD1-45D6 (antibody, V domains shown)
VH: QVQLVESGGGVVQPGRSLRLSCAASGFTFSSYAMHWVRQVPGKGLEWVAVISYDGNDKYYADSVKGRFTISRDNSKNTLYLQMNSLRAEDTAVYYCVPTTFEYWGQGSQVTVSS
VL: DIVMTQTPLSLPVTPGEAASISCRSSQSLLDSDDGKTYLDWYLQKPGQSPQLLIYTLSYRASGVPDRFSGSGSGTEFNLRISRVEAEDVGIYYCMQRVEFPFTFGQGTKLDIK
notes: as for B1

What follows are binders tested against T1, GREM1 (Homo sapiens (Human), UniProt O60565 25-184) (assay: ELISA).
T1 sequence: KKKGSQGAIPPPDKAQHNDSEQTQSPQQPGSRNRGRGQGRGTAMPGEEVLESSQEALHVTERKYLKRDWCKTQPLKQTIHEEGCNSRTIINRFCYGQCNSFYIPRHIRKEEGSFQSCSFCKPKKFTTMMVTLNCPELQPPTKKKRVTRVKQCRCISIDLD

Q: Does B1 bind?
A: no binding (tested: 1 ug/ml)

Q: Does B2 bind?
A: no binding (tested: 1 ug/ml)

Q: Does B3 bind?
A: no binding (tested: 1 ug/ml)

These binders were tested against TNFSF9 (Homo sapiens (Human), UniProt P41273 50-254) (assay: ELISA).
Chain of TNFSF9 (P41273 50-254 limits assumed): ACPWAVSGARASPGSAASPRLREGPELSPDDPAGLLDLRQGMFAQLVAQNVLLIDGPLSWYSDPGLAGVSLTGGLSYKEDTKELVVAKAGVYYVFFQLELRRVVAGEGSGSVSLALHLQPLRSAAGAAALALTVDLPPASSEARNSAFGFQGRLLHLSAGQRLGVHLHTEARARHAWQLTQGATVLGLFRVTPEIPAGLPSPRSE

Q: Does B1 bind?
A: no binding (tested: 1 ug/ml)

Q: Does B2 bind?
A: no binding (tested: 1 ug/ml)

Q: Does B3 bind?
A: no binding (tested: 1 ug/ml)

These binders were tested against T2, C2orf28 (Homo sapiens (Human), UniProt Q6UW56 31-199) (assay: ELISA).
T2 sequence: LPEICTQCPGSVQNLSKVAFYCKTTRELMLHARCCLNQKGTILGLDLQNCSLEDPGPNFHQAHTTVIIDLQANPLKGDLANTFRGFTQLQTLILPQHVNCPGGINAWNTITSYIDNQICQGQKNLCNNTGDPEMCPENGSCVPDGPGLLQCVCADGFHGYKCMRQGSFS

Q: Does B1 bind?
A: no binding (tested: 1 ug/ml)

Q: Does B2 bind?
A: no binding (tested: 1 ug/ml)

Q: Does B3 bind?
A: no binding (tested: 1 ug/ml)

These binders were tested against T3, SEMA5A (Homo sapiens (Human), UniProt Q13591 23-968) (assay: ELISA).
T3 sequence: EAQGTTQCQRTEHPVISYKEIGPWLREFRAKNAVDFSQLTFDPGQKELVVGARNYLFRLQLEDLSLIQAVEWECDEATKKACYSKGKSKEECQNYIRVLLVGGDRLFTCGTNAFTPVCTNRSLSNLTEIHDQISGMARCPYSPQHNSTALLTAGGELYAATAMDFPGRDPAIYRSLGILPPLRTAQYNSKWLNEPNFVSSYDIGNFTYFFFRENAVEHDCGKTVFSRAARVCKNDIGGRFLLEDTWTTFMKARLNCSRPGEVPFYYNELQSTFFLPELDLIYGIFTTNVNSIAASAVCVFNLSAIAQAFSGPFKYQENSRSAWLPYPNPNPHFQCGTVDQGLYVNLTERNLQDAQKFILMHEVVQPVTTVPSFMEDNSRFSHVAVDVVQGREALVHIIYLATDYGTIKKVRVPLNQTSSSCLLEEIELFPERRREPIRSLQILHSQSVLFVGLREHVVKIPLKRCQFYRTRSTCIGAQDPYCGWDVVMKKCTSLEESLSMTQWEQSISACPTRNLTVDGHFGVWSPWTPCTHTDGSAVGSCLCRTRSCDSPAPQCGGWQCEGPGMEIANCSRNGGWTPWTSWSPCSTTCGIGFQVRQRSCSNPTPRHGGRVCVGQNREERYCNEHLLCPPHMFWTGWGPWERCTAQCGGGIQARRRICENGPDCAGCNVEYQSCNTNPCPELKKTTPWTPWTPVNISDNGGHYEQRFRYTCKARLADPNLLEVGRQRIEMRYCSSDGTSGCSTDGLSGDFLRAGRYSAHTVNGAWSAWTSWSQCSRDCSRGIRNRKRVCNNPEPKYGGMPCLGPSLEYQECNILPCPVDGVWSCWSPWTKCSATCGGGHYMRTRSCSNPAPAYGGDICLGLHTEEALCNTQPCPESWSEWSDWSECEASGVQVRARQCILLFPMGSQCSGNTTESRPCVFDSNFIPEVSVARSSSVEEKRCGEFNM

Q: Does B1 bind?
A: no binding (tested: 1 ug/ml)

Q: Does B2 bind?
A: no binding (tested: 1 ug/ml)

Q: Does B3 bind?
A: no binding (tested: 1 ug/ml)

The binders below were run against PLXDC2 (Homo sapiens (Human), UniProt Q6UX71 31-454) (assay: ELISA).
Chain of PLXDC2 (Q6UX71 31-454 limits assumed): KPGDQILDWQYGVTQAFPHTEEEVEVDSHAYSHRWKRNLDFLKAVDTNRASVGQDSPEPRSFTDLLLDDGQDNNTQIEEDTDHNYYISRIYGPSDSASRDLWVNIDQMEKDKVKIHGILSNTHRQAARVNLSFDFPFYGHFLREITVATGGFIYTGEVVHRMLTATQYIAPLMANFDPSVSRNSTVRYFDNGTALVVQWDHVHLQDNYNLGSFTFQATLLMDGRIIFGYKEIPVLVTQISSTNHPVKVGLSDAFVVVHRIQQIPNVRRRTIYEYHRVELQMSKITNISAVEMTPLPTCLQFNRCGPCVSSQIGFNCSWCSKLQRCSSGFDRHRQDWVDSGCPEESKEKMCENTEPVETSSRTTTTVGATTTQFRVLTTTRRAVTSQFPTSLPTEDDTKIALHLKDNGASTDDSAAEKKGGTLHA

Q: Does B1 bind?
A: no binding (tested: 1 ug/ml)

Q: Does B2 bind?
A: no binding (tested: 1 ug/ml)

Q: Does B3 bind?
A: no binding (tested: 1 ug/ml)

The binders below were run against T4, SLITRK5 (Homo sapiens (Human), UniProt O94991 41-664) (assay: ELISA).
T4 sequence: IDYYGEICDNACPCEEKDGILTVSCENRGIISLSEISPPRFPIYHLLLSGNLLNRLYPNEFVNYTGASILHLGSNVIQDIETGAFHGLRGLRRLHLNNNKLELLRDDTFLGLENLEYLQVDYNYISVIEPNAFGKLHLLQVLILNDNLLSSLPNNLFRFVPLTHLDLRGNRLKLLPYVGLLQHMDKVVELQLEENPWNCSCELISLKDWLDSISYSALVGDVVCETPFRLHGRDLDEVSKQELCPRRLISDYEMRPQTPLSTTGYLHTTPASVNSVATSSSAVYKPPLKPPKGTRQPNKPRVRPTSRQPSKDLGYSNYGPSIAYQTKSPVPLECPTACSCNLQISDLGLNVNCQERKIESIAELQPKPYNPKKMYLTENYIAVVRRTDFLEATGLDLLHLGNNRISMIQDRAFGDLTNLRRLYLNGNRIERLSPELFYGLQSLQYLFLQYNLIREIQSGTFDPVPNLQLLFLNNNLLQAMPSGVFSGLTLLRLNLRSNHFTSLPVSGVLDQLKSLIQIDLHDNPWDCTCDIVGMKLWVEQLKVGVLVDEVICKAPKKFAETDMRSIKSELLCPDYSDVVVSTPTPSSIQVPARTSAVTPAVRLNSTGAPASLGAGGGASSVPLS

Q: Does B1 bind?
A: no binding (tested: 1 ug/ml)

Q: Does B2 bind?
A: no binding (tested: 1 ug/ml)

Q: Does B3 bind?
A: no binding (tested: 1 ug/ml)

These binders were tested against T5, DMP1 (Homo sapiens (Human), UniProt Q13316 17-513) (assay: ELISA).
T5 sequence: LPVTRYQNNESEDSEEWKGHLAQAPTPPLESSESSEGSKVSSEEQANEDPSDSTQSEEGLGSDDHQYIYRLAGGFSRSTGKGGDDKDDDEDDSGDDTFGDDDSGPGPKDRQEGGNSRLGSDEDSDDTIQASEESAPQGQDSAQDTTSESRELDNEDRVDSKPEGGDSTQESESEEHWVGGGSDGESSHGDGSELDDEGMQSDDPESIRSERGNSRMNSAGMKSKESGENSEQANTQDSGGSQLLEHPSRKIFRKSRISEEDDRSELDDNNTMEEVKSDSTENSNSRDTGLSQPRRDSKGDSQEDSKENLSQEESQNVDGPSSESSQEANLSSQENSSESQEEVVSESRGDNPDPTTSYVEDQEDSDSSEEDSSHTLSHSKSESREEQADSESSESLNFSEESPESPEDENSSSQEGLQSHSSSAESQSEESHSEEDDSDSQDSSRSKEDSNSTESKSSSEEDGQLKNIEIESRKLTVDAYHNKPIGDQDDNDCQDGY

Q: Does B1 bind?
A: no binding (tested: 1 ug/ml)

Q: Does B2 bind?
A: no binding (tested: 1 ug/ml)

Q: Does B3 bind?
A: no binding (tested: 1 ug/ml)

These binders were tested against T6, NRG4 (Homo sapiens (Human), UniProt Q8WWG1 1-62) (assay: ELISA).
T6 sequence: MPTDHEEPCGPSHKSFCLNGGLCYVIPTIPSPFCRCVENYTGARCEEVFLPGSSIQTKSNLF

Q: Does B1 bind?
A: no binding (tested: 1 ug/ml)

Q: Does B2 bind?
A: no binding (tested: 1 ug/ml)

Q: Does B3 bind?
A: no binding (tested: 1 ug/ml)

Reference: patent US20190248900A1 (Y BIOLOGICS, published 2019)
